These results are taken from paper PMC9376891 (Nature Communications, 2022).

What is called Kd is a measure of binding affinity in units of concentration. The low end stands for a tighter complex, the high end for a looser complex. By stoichiometry N is commonly meant a count of units in the complex or per binding partner.

For one assay, the target named is T1, Rae1(31-368)-Nup98(157-213) heterodimer (human, UniProt P78406 31-368; P52948 157-213).
T1 construct: also called Rae1-Nup98; Rae1-Nup98 complex
Kind of assay: ITC. The following applies: both partners purified.
T1 sequence (P78406 31-368, chain 1 of 2): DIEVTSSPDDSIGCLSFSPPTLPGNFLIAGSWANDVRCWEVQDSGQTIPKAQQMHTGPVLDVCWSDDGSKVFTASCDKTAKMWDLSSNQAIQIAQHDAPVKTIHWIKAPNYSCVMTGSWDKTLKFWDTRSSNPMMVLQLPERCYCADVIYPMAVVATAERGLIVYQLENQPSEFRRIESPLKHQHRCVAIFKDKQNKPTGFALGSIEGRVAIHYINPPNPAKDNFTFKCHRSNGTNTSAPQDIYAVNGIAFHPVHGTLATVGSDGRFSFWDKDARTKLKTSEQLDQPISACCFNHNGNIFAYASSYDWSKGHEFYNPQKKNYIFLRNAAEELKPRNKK
T1 sequence (P52948 157-213, chain 2 of 2): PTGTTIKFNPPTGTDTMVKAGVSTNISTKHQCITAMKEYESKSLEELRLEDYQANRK
YSQLAEEQPMEID (source: synthetic peptide) [SARS-CoV-2 ORF6-D53A]: the Ka was 863000 M⁻¹, binding was put at a Kd of 1150 nM and the “stoichiometry N” value was 0.71.

With YSQLDEAQPMEID (source: synthetic peptide) [SARS-CoV-2 ORF6-E55A], the Ka came out at 1.75e+06 M⁻¹, the Kd amounted to 570 nM and the “stoichiometry N” value stood at 0.65.

Consider YSQLDEEEPMEID (source: synthetic peptide) [SARS-CoV-2 ORF6-Q56E], for which the Ka is 2.08e+07 M⁻¹, the Kd came to 40 nM and the “stoichiometry N” value worked out at 0.781.

In the case of YSQLDAEQPMEID (source: synthetic peptide) [SARS-CoV-2 ORF6-E54A], the Ka came out at 1.72e+06 M⁻¹, the Kd was 580 nM and the “stoichiometry N” value worked out at 0.59.

The target in a further assay is T1, Rae1(31-368)-Nup98(157-213) heterodimer. Kind of assay: ITC. The note with it: both partners purified. This is another data set of the same source.
For YSQLDEEQPLEID (source: synthetic peptide) [SARS-CoV-2 ORF6-M58L], the Ka came to 96400 M⁻¹ and the “stoichiometry N” value came out at 1.

For YSQLDEEQPMAID (source: synthetic peptide) [SARS-CoV-2 ORF6-E59A], the Ka was 606000 M⁻¹, the Kd turned out to be 1650 nM and the “stoichiometry N” value was determined as 0.68.

In the case of YSQLDEEQAMEID (source: synthetic peptide) [SARS-CoV-2 ORF6-P57A], the Ka was 1.12e+06 M⁻¹, binding was put at a Kd of 890 nM and the “stoichiometry N” value was found to be 2.34.

In the case of YSQLDEEQPMEIA (source: synthetic peptide) [SARS-CoV-2 ORF6-D61A], the Ka amounted to 361000 M⁻¹, binding was put at a Kd of 2770 nM and the “stoichiometry N” value came to 0.76.

Regarding YSQLDEEQPMEAD (source: synthetic peptide) [SARS-CoV-2 ORF6-I60A], the Ka is 238000 M⁻¹, the Kd turned out to be 4200 nM and the “stoichiometry N” value is 0.68.

The next assay deals with T2, Rae1(31-368)-Nup98(157-213) heterodimer (human, UniProt P78406 31-368; P52948 157-213).
T2 construct: also called Rae1-Nup98; Rae1-Nup98 complex
The experiment in a line: ITC. The note with it: both partners purified.
T2 sequence (P78406 31-368, chain 1 of 2): as the sequence (P78406 31-368, chain 1 of 2) above
T2 sequence (P52948 157-213, chain 2 of 2): as the sequence (P52948 157-213, chain 2 of 2) above
As to YSQLDEEQPMEAD (source: synthetic peptide) [SARS-CoV-2 ORF6 C3 peptide I60A], the “fold reduction of binding affinity against SARS-CoV-2 ORF6 C3” value was roughly 17.5 fold.

Molecule YSQLDEEQPLEID (source: synthetic peptide) [SARS-CoV-2 ORF6 C3 peptide M58L] yielded a Kd of 10400 nM.

Regarding YSQLDEEEPMEID (source: synthetic peptide) [SARS-CoV-2 ORF6 C3 peptide Q56E], the “fold increase of binding affinity against SARS-CoV-2 ORF6 C3” value is roughly 6 fold.
